Measurements as given in patent publication US20070054332A1, “Syndecan 1 ectodomain inhibits cancer” (priority 2005, published 2007).
“Also recorded” adds a separate entry of the source.

Tests used:
[1] = system: S115 mouse mammary tumor cells; conditions: nanomolar concentrations; Mali et al. (1994); cited from earlier work
[2] = system: MDA-MB-231 human mammary carcinoma cells; assay: Rescue of proliferation in siRNA-treated cells by mouse Sdc1 constructs; assay type: cell-based; conditions: MDA-MB-231, endogenous human Sdc1 silenced, mouse construct expressed
Description: Full length mouse Sdc1 (FLmS1),GPI linked mS1ED (GPImS1ED) or a construct of mouse Sdc1 in which the heparan sulfate attachment sites are mutated (TDM) were stably transfected into MDA-MB-231 cells and selected with 1.5 mg/ml G418 (Gibco BRL). These stable transfectants were maintained in culture in the presence of G418 and were checked periodically for constant expression of FLmS 1, GPImS1ED or TDM. Cells expressing these transgenes at similar levels were sorted by FACS before the experiments. Cells transfected with the empty pcDNA3 vector (NEO) were used as control.
Silencing of human Sdc1 with specific short interfering RNA (siRNA). Purified, duplexed siRNAs specific for human Sdc1 were purchased from Ambion (Austin, Tex.). The siRNA sequences targeting human Sdc1 were: hsdc1-1, […]; hsdc1-2, […]; hsdc1-3, […]. […]
Assessment of Cell Growth. To quantify cell proliferation, cells grown in matrigel (3D culture) or on top of matrigel (2D culture) were released from the matrigel by 45-60 min incubation at 37° C. with Dispase (BD Biosciences), washed with Dulbecco's modified Eagle's medium (DMEM) 2-3 times and resuspended into 400 ul fresh DMEM for cell counting by hemocytometer. Triplicate wells, replicated in at least three experiments, were used for the quantification.

[3] = system: MDA-MB-231 cell spreading; conditions: soluble ectodomain, dose-dependent; cited from earlier work
[4] = system: MDA-MB-231 cell; conditions: soluble ectodomain, dose-dependent; cited from earlier work
[5] = target: T1, Sdc1 and the αvβ5 integrin complex (Mus musculus, UniProt O70309+P43406); conditions: B82L cells, competing concentration; McQuade et al., 2006; cited from earlier work
T1 construct: immunoprecipitation of Sdc1 from the B82L cells co-precipitates the integrin with the Sdc1; endogenous in cells; host or cells: B82L mouse fibroblasts
T1 sequence (P43406 31-1044): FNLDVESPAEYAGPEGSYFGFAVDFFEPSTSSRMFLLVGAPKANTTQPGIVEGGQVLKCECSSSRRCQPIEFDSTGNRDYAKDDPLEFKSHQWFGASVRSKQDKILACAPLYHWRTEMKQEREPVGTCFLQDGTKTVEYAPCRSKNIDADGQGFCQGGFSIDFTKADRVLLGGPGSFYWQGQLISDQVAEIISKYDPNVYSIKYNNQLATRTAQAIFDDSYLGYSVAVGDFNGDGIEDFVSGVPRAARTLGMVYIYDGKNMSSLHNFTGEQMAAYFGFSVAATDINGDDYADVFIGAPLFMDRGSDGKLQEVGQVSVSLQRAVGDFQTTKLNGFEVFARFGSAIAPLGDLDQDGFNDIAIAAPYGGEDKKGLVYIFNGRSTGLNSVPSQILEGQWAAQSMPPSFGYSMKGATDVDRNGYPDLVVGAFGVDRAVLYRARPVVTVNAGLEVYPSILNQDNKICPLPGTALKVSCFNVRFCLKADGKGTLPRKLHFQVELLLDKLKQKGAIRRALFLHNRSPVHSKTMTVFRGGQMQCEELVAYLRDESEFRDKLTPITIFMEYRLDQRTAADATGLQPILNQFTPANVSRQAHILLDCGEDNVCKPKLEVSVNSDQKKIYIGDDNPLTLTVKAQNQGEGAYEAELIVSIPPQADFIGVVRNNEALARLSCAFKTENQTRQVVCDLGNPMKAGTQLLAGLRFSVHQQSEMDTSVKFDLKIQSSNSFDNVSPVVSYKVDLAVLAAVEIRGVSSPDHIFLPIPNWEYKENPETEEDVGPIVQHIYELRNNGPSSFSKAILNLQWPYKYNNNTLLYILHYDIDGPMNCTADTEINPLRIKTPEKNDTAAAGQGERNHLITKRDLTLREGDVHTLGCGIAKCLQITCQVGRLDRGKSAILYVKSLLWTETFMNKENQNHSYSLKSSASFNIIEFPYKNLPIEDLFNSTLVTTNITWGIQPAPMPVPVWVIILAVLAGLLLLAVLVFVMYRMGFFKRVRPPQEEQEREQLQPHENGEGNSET
T1 sequence (O70309 24-798): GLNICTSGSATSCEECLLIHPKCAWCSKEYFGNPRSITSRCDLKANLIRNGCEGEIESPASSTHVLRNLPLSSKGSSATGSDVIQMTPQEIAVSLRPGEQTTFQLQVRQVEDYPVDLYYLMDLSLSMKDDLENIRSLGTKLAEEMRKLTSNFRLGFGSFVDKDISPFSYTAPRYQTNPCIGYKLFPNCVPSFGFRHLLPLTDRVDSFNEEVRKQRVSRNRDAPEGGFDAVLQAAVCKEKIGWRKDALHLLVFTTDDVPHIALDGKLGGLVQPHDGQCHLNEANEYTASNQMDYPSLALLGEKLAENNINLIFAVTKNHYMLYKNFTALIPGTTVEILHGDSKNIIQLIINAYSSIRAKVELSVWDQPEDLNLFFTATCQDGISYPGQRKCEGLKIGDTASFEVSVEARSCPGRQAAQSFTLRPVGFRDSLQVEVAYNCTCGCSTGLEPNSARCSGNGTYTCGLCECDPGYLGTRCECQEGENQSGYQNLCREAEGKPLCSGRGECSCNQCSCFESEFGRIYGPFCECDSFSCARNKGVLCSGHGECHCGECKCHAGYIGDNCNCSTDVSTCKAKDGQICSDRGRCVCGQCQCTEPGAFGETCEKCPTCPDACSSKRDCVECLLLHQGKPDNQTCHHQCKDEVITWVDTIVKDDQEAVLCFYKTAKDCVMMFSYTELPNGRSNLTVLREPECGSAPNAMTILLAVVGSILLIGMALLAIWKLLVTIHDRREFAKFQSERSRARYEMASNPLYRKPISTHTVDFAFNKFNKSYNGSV

[6] = target: T2, αvβ5 integrin (Mus musculus, UniProt O70309+P43406); conditions: B82L mouse fibroblasts, competing concentrations; McQuade et al., 2006; cited from earlier work
T2 construct: B82L mouse fibroblasts expressing this integrin; endogenous in cells; host or cells: B82L mouse fibroblasts
T2 sequence (P43406 31-1044): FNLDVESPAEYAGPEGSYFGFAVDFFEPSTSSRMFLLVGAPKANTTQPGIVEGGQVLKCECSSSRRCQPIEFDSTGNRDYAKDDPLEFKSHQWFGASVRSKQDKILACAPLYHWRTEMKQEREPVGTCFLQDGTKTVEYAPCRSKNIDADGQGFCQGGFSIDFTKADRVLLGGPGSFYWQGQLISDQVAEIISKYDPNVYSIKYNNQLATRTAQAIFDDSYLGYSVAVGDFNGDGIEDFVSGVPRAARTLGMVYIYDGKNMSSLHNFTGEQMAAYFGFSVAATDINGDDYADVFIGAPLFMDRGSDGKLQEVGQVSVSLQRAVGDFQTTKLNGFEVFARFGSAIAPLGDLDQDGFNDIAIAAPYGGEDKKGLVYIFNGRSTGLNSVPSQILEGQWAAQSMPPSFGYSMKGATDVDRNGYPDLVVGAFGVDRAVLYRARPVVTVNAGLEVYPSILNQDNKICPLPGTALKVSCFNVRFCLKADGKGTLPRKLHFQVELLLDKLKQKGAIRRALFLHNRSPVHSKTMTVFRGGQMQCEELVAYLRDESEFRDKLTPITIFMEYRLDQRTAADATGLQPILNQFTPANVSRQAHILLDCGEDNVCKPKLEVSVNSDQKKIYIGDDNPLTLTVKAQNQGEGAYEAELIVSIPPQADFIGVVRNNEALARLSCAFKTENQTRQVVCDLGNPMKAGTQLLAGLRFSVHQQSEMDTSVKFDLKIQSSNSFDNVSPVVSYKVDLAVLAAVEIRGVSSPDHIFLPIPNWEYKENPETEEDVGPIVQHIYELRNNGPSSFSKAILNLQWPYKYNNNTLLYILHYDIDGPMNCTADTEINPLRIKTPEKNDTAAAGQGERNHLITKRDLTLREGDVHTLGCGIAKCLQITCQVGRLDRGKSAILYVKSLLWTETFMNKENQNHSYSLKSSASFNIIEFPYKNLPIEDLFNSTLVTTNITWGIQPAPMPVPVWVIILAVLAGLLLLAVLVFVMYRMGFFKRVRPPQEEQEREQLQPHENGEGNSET
T2 sequence (O70309 24-798): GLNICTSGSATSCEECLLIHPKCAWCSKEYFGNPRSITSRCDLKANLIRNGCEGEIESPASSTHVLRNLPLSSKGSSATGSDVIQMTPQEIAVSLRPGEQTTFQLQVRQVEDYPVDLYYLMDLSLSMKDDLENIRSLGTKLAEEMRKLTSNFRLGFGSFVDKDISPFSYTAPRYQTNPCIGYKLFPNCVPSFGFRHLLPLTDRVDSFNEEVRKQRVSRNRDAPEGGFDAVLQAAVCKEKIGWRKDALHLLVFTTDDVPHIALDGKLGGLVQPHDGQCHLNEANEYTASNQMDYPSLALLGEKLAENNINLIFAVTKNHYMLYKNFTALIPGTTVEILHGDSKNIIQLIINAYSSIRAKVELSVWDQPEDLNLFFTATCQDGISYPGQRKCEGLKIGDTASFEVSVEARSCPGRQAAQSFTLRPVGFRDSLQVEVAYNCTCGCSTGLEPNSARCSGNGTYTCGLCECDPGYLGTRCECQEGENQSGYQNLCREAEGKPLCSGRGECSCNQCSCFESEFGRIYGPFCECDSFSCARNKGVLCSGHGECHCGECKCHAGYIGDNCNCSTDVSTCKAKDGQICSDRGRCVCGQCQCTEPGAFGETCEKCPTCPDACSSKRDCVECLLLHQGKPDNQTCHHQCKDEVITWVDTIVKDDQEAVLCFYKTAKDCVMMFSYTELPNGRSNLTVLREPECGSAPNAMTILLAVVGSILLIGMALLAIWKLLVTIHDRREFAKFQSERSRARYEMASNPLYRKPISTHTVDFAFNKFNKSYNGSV

B1: free ectodomain: free ectodomain from culture medium of syndecan 1-transfected S115 or normal murine mammary gland cells, bearing heparan sulfate (Mali et al., 1994) (protein, UniProt P18828 23-255, looked up)
extracellular domain: QIVAVNVPPEDQDGSGDDSDNFSGSGTGALPDTLSRQTPSTWKDVWLLTATPTAPEPTSSNTETAFTSVLPAGEKPEEGEPVLHVEAEPGFTARDKEKEVTTRPRETVQLPITQRASTVRVTTAQAAVTSHPHGGMQPGLHETSAPTAPGQPDHQPPRVEGGGTSVIKEVVEDGTANQLPAGEGSGEQDFTFETSGENTAVAAVEPGLRNQPPVDEGATGASQSLLDRKEVLG
modifications: extracellular domain heparan sulfate
[1]
  growth of S115 tumor cells: suppress the growth

B2: mouse Sdc1: Full length mouse Sdc1 stably transfected into MDA-MB-231 cells (protein, UniProt P18828 1-311, looked up)
chain: MRRAALWLWLCALALRLQPALPQIVAVNVPPEDQDGSGDDSDNFSGSGTGALPDTLSRQTPSTWKDVWLLTATPTAPEPTSSNTETAFTSVLPAGEKPEEGEPVLHVEAEPGFTARDKEKEVTTRPRETVQLPITQRASTVRVTTAQAAVTSHPHGGMQPGLHETSAPTAPGQPDHQPPRVEGGGTSVIKEVVEDGTANQLPAGEGSGEQDFTFETSGENTAVAAVEPGLRNQPPVDEGATGASQSLLDRKEVLGGVIAGGLVGLIFAVCLVAFMLYRMKKKDEGSYSLEEPKQANGGAYQKPTKQEEFYA
modifications: full-length
notes: Full length mouse Sdc1 stably transfected into MDA-MB-231 cells
[2]
  rescue of proliferation in siRNA-treated cells: Rescue of proliferation; also recorded: rescues proliferation

B3: Soluble murine Sdc1 ectodomain: soluble murine Sdc1 ectodomain (Beauvais and Rapraeger, 2003) (protein, UniProt P18828 23-255, looked up)
extracellular domain: QIVAVNVPPEDQDGSGDDSDNFSGSGTGALPDTLSRQTPSTWKDVWLLTATPTAPEPTSSNTETAFTSVLPAGEKPEEGEPVLHVEAEPGFTARDKEKEVTTRPRETVQLPITQRASTVRVTTAQAAVTSHPHGGMQPGLHETSAPTAPGQPDHQPPRVEGGGTSVIKEVVEDGTANQLPAGEGSGEQDFTFETSGENTAVAAVEPGLRNQPPVDEGATGASQSLLDRKEVLG
modifications: extracellular domain
[3]
  inhibition of MDA-MB-231 cell spreading: competitively inhibits
[4]
  inhibition in short-term migration assays: competitively inhibits

B4: soluble syndecan-4 ectodomain: soluble syndecan-4 ectodomain, specificity control (protein, UniProt P31431 19-145, looked up)
extracellular domain: ESIRETEVIDPQDLLEGRYFSGALPDDEDVVGPGQESDDFELSGSGDLDDLEDSMIGPEVVHPLVPLDNHIPERAGSGSQVPTEPKKLEENEVIPKRISPVEESEDVSNKVSMSSTVQGSNIFERTE
modifications: extracellular domain
notes: soluble syndecan-4 ectodomain, specificity control
[3]
  inhibition of MDA-MB-231 cell spreading: fails to compete

B5: recombinant Sdc1 ectodomain: recombinant Sdc1 ectodomain added at competing concentrations (McQuade et al., 2006) (protein, UniProt P18828 23-255, looked up)
extracellular domain: QIVAVNVPPEDQDGSGDDSDNFSGSGTGALPDTLSRQTPSTWKDVWLLTATPTAPEPTSSNTETAFTSVLPAGEKPEEGEPVLHVEAEPGFTARDKEKEVTTRPRETVQLPITQRASTVRVTTAQAAVTSHPHGGMQPGLHETSAPTAPGQPDHQPPRVEGGGTSVIKEVVEDGTANQLPAGEGSGEQDFTFETSGENTAVAAVEPGLRNQPPVDEGATGASQSLLDRKEVLG
modifications: extracellular domain
[5]
  co-precipitation of the integrin with Sdc1: disrupted
[6]
  αvβ5 integrin activity: inactivated
